What was measured:
[1] = target: Streptococcus pyogenes alpha-enolase (SEn) (S. pyogenes strain AP53) (UniProt P69949); assay: cryo-EM structure; SEn reconstituted in DOPG vesicles, extruded to small unilamellar vesicles; octamer in the bilayer
[2] = target: Streptococcus pyogenes alpha-enolase (SEn) (S. pyogenes strain AP53) (UniProt P69949); assay: SPR; SEn immobilised on CM5 chip; tPA analyte 0-2000 nM in HBS-EP+ pH 7.4; 10 uL/min, 600 s association, 300 s dissociation; affinity (steady-state) fit
[3] = target: Streptococcus pyogenes alpha-enolase (SEn) (S. pyogenes strain AP53) (UniProt P69949); assay: flow cytometry on DOPG vesicles; SEn-constituted DOPG vesicles (BSA-blocked) incubated with 0.8 uM tPA in PBS for 1 h; mouse anti-tPA and Alexa Fluor 488 anti-mouse IgG

Row | Substance | stoichiometry N [1] | Kd [2] [nM] | percent DOPG-SEn-tPA complex (FITC-positive vesicles) [3] [%]
1 | Streptococcus pyogenes alpha-enolase (SEn) (from UniProt P69949 1-435) (enzyme) | 8 |  | 
2 | recombinant human tissue-type plasminogen activator (tPA) (enzyme) |  | 161 | 70
